The results in this text go back to patent US20060252697A1 (ANTYRA, published 2006).

In assay [1] the target is rat growth hormone binding protein (rGHBP) (rat) (UniProt P16310). Put plainly: TRFD, ED50 of specific binding of biotinylated ligand to rGHBP-coated wells.
Assay [2] has the same target. Briefly: TRFD competition on rGHBP-coated wells, vs. bGH.
Assay [3] has the same target. Put plainly: TRFD competition on rGHBP-coated wells, vs. bP#418 (SEQ ID NO: 12).
Assay [4] has the same target. Put plainly: TRFD competition on rGHBP-coated wells, vs. bP#447 (SEQ ID NO: 11).
For assay [5] the target is unchanged. Briefly: phage ELISA competition on rGHBP (100 ng/well); blocked: H5 phage.
For assay [6], the target named is T1, rat growth hormone binding protein (rGHBP) (rat, UniProt P16310 19-265).
T1 construct: extracellular domain; also called rat GHBP; soluble rGHBP
T1 sequence (looked up): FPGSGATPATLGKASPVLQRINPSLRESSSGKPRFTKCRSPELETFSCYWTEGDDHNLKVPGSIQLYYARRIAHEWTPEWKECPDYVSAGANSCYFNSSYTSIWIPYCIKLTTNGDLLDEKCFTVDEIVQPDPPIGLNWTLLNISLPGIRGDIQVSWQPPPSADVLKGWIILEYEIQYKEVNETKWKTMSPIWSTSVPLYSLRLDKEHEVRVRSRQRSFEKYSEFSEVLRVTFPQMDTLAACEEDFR
Briefly: BIAcore, bPeptide binding to rGHBP, appKD 1.

Assay [7] has as its target T1, rat growth hormone binding protein …. Put plainly: BIAcore, bPeptide binding to rGHBP, appKD 2.
Assay [8] shares this target. Put plainly: phage ELISA competition on rGHBP (100 ng/well); synthetic peptide against H5 phage. The procedure:
Wells were coated with rGHBP (100 ng/well) and blocked as described. […] The peptides included two lysine residues added to the C-terminus of the sequence shown. Phage binding was detected with HRP-anti M13 phage antibody. Number and sequence of competing peptides are detailed on the right of figure. Control binding=binding in absence of peptide.

The target is the same in assay [9]. Put plainly: phage ELISA competition on rGHBP (100 ng/well); synthetic H5 peptide against H5 phage. Here is the method: Wells were coated with rGHBP (100 ng/well) and blocked as described. […] Phage was detected with HRP-anti M13 phage antibody and reported at OD₄₀₅ as described.
Assay [10] has the same target. Briefly: phage ELISA, rGHBP 100 ng/well. The procedure: Alanine replacement for single or multiple amino acids is represented by “a” and for cysteine by “X”. FIG. 4A illustrates the binding of wild-type (WT) and mutant phage on wells coated with milk (2%), FcMAb (100 ng/well), rGHBP (100 ng/well), or MAb specific for the E-tag epitope (100 ng/well). FIG. 4B illustrates the ratio of mutant phage binding to rGHBP versus anti-E-tag MAb coated wells.
For this analysis, phage were input at 10¹⁰/well. Wild type (WT) and mutant phage were tested on wells coated with milk (2%), FcMAb (100 ng/well), rGHBP (100 ng/well), or MAb specific for the E-tag epitope (100 ng/well) (FIG. 4A). Detection with HRP-anti M13 phage antibody was done as described. In FIG. 4, alanine replacement for single or multiple amino acid is represented by “a” and for cysteine by “X”.

For assay [11] the target is unchanged. Put plainly: TRFD.
For assay [12] the target is unchanged. Put plainly: TRFD, ED50 of specific binding to rGHBP-coated wells.
Description: (§1) rGHBP (50-200 μg/ml in 50 mM NaHCO₃) was coated onto low-fluorescence MaxiSorp (Nunc) plates (100 μl/well) overnight at 4° C. The plates were blocked with PBS containing 2% non-fat milk and 0.05% BSA for 2 hr at room temperature, followed by three PBS washes. […] Ten microliters of the 10× concentrated material was added to the plates and incubated at room temperature for 1 hr to overnight.
(§2) The plates were then washed five times with Tris-buffered saline (pH 7.5) containing 0.1% Tween-20 (TTBS). To each well, 100 μl of europium-labeled streptavidin in DELFIA assay buffer (100 mM Tris-HCl, pH 7.8; 150 mM NaCl; 0.5% BSA; 0.05% bovine Ig; 0.05% NaN3; 0.01% Tween-20) was added and incubated for 1.5 hr at room temperature. The plates were then washed five times with TTBS and tapped dry. Subsequently, 100 μl of DELFIA enhancement solution (100 mM acetone-potassium hydrogen phthalate, pH 3.2; 15 mM 2-naphtyltrifluoroacetate; 50 mM tri(n-octyl)-phosphine oxide; 0.1% Triton X-100) was added to each well, and the plates were shaken for 10 min at room temperature.
For assay [13] the target is unchanged. Briefly: TRFD, ED50 of specific binding of biotinylated ligand to rGHBP-coated wells.
Description: Wells were coated with rGHBP (100 ng/well) overnight as described. ED₅₀ and IC₅₀ were calculated from analysis of specific bLigand binding to rGHBP. Competitors were added 1 hr prior to addition of bLigand as described.
as §1, §2
The target in assay [14] is humanized rat growth hormone binding protein (‘hu’GHBP) (rat (humanized by one substitution)) (UniProt P16310). Briefly: phage ELISA on ‘hu’GHBP-coated wells, +BSA (1 µM).
Assay [15] shares this target. Briefly: phage ELISA on ‘hu’GHBP-coated wells, no competitor.
Assay [16] shares this target. Briefly: phage ELISA on ‘hu’GHBP-coated wells, competitor human GH (+hGH, 1 µM).

Where no end group is shown, it is not given here. Some results are limits rather than exact numbers.

With “biotinylated growth hormone (bGH) (ligand)”, the EC50 in assay [1] is 20 nM.

“growth hormone (GH), species not stated (ligand)”: the figures for the IC50 in [2], in assay [3] and in [4] were 5 nM, 2 nM and 0.4 nM, respectively. This molecule showed an IC50 (read off the curve) in assay [5] of 5 nM.

B1: GHBP-H5 peptide (H5WT) (peptide)
peptide: DYKDLCQSLGVTYPGWLAGWCA
modifications: cysteine pairing not given here; also: biotinylated in some formats, position not given here
notes: also called H5 phage
For B1, the values for the Kd in assay [6] and in assay [7] were 1300 nM and 3500 nM, respectively. For the same molecule, the “IC50 (read off the curve)” value in assay [8] and in assay [9] was approximately 1000 nM in each case.

B2: X---C (first C crossed out) (peptide)
peptide: DYKDLAQSLGVTYPGWLAGWCA
notes: H5 phage mutant
Turning to B2, the binding result in [10] is “no binding (tested: 10^10 phage/well)”.

B3: peptide #447 (peptide)
peptide: DYKDLCQRLGVGWPGWLSGWCA
modifications: cysteine pairing not given here; also: biotinylated in bP form, position not given here
notes: H5 mutant from the secondary library, synthetic
As for B3, the “fold better binding than H5WT or bP#445” value in [11] is 10 fold. The Kd in assay [6] came out at 160 nM; in assay [7], 2900 nM. In addition, the figures for the EC50 in assay [12] and in [13] were 700 nM and 600 nM, respectively. Besides, the “IC50 (read off the curve)” value in assay [8] is approximately 90 nM.

B4: peptide #443 (peptide)
peptide: DYKDLCQRLGVTWPGWLAGWCA
modifications: cysteine pairing not given here; also: biotinylated, position not given here
notes: H5 mutant, synthetic
For the molecule B4, the Kd in assay [6] was 600 nM; in assay [7], more than 10000 nM. Also, the “IC50 (read off the curve)” value in assay [8] was approximately 400 nM.

B5: X---X (both C crossed out) (peptide)
peptide: DYKDLAQSLGVTYPGWLAGWAA
notes: H5 phage mutant
On to B5, for which the binding result in assay [10] is on record as “no binding (tested: 10^10 phage/well)”.

B6: peptide #418 (peptide)
peptide: DYKDLCQSWQVTWPGWLAGWCA
modifications: cysteine pairing not given here; also: biotinylated in bP form, position not given here
notes: H5 mutant from the secondary library (Y9 to W, L5 to W, G6 to E), synthetic
In the case of B6, in assay [11], the “fold better binding than H5WT or bP#445” value is 10 fold. In addition, the Kd worked out at 150 nM in assay [6] and 670 nM in assay [7]. The same molecule registered an EC50 in [13] of 800 nM. In addition, the “IC50 (read off the curve)” value in [8] is approximately 100 nM.

B7: peptide #445 (peptide)
peptide: DYKDLCQRLGVGWPGWLAGWCA
modifications: cysteine pairing not given here; also: biotinylated in bP form, position not given here
Take B7: the ELISA signal (unit not given) turned out to be 0.11 in assay [14], 0.14 in assay [15] and 0.12 in assay [16].

B8: clone HH peptide (peptide)
peptide: DYKDALLHRSRCVRWGKWVCCLPPVGVGGAQANQGMSVQRFRHC
With B8, the ELISA signal (unit not given) in assay [14] is 0.37; in assay [15] it was 0.37; in assay [16], 0.35.
